Measured values from publication PMC9045395, “Assembly and Functional Role of PACE Transporter PA2880 from Pseudomonas aeruginosa” (Microbiology Spectrum, 2022).
Substitutions are numbered along the chain they refer to. Names may count otherwise.

Experiments:
[1] = target: T1, PA2880 (Pseudomonas aeruginosa, UniProt Q9HZW7); experiment: native mass spectrometry (LILBID-MS); conditions: 200 mM ammonium acetate, 0.02% DDM; binding increases dimer population; proton-coupled transport substrate
T1 construct: full length, C-terminal TEV site, eGFP (A206K) and Strep-tag; also tested without eGFP in native MS; expressed in Pseudomonas stutzeri; purified in DDM; dimer

[2] = target: the molecule itself; experiment: native MS; LILBID-MS; protein in 200 mM ammonium acetate with 0.02% (wt/vol) DDM, pH 8; monomer to dimer; some samples with chlorhexidine up to a substrate/protein molar ratio of 8 (more dimer)
[3] = target: the molecule itself; experiment: native MS; LILBID-MS; protein in 200 mM ammonium acetate with 0.02% (wt/vol) DDM, pH series from 5 to 9; monomer to dimer; dimer ratio from deconvoluted zero-charge spectra
[4] = target: the molecule itself; experiment: native MS

N=C(NCCCCCCNC(=N)NC(=N)Nc1ccc(Cl)cc1)NC(=N)Nc1ccc(Cl)cc1 [chlorhexidine]
native mass spectrometry (LILBID-MS) [1]: The LILIBID-MS results showed that chlorhexidine was bound to PA2880

B1: PA2880 fused with enhanced green fluorescent protein (PA2880-eGFP), wild type (natural protein)
chain: MTIQPDFNDEPGAFAMTHTHTALDKTLKERIFHALAFEGLAVLLTAPVLSLVMNKPLAHMGALTLMFSTVAMLWNMLFNSLFDRAQRRMGFQRTLQVRVLHAMLFELGLIVVLVPLAAWWLSIGLVEAFLLDMGLILFFLPYTMAFNWSYDVLRARLVESRQAKAAGCDAG
notes: also called wt; wild-type PA2880 with fused eGFP; source: Pseudomonas stutzeri (pL2020-PA2880-eGFP), purified (Strep XT column, SEC, in DDM); not shown: eGFP (A206K variant), C-terminal, kept
stoichiometry N [2]: 2

B2: PA2880 E38Q variant (natural protein, Pseudomonas aeruginosa strain PAO1, UniProt Q9HZW7 1-171, looked up)
chain: B1 chain with E38Q
notes: PACE family transporter PA2880 of Pseudomonas aeruginosa strain PAO1 with E38Q; source: purified; not shown: eGFP (A206K variant), C-terminal, kept
stoichiometry N [3]: 2

B3: wild-type PA2880 without fused eGFP (natural protein)
chain: B1 chain
notes: also called PA2880 without eGFP
stoichiometry N [4]: 2
